Experimental data reported in paper PMC3553976.

Biological target: U2AF65 (UniProt P26368)
Assay: NMR binding data
Details: reference: non-phosphorylated SF1 construct; sites S80,S82

Substance: splicing factor 1 (SF1) (from UniProt Q15637) KIS-phosphorylated SF1 construct
- binding against the reference: same
